Assay results published in publication PMC11602973, “Structural basis of nucleic acid recognition by the N-terminal cold shock domain of the plant glycine-rich protein AtGRP2”.
Changes are numbered by the printed parent chain.

Legend:
[1] = molecular target: T1, AtGRP2-CSD1-90 F26A (Arabidopsis thaliana, UniProt Q41188 1-90, F26A); assay: fluorescence anisotropy; no saturation; text: binding abolished; 20 mM sodium phosphate pH 6.5, 50 mM NaCl, 25 C (fluorescence); NMR titrations in the same buffer plus 250 uM PMSF, 3 mM NaN3, 5% D2O, 298 K; conditions: protein: recombinant; tags: N-terminal Trx(6 aa)-His6-TEV tag, cleaved; label: 5'-rhodamine
T1 sequence: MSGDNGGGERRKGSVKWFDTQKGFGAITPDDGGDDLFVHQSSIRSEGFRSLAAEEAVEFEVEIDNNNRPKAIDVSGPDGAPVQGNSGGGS

[2] = molecular target: T2, AtGRP2-CSD1-90 F37A (Arabidopsis thaliana, UniProt Q41188 1-90, F37A); assay: as above; conditions: protein: recombinant; tags: N-terminal Trx(6 aa)-His6-TEV tag, cleaved; label: 5'-rhodamine
T2 sequence: T1 sequence with A26F, F37A

[3] = molecular target: T3, AtGRP2-CSD1-90 W17A (Arabidopsis thaliana, UniProt Q41188 1-90, W17A); assay: as above; conditions: protein: recombinant; tags: N-terminal Trx(6 aa)-His6-TEV tag, cleaved; label: 5'-rhodamine
T3 sequence: T1 sequence with W17A, A26F

[4] = molecular target: T4, AtGRP2-CSD1-90 H39A (Arabidopsis thaliana, UniProt Q41188 1-90, H39A); assay: fluorescence anisotropy; 20 mM sodium phosphate pH 6.5, 50 mM NaCl, 25 C (fluorescence); NMR titrations in the same buffer plus 250 uM PMSF, 3 mM NaN3, 5% D2O, 298 K; conditions: protein: recombinant; tags: N-terminal Trx(6 aa)-His6-TEV tag, cleaved; label: 5'-rhodamine
T4 sequence: T1 sequence with A26F, H39A

[5] = molecular target: T5, AtGRP2-CSD1-90 WT (Arabidopsis thaliana, UniProt Q41188 1-90); assay: as above; conditions: protein: recombinant; tags: N-terminal Trx(6 aa)-His6-TEV tag, cleaved; label: 5'-rhodamine
T5 sequence: T1 sequence with A26F

[6] = molecular target: T6, AtGRP2-CSD1-90 R49A (Arabidopsis thaliana, UniProt Q41188 1-90, R49A); assay: as above; conditions: protein: recombinant; tags: N-terminal Trx(6 aa)-His6-TEV tag, cleaved; label: 5'-rhodamine
T6 sequence: T1 sequence with A26F, R49A

[7] = molecular target: T7, AtGRP2-CSD1-90 F48A (Arabidopsis thaliana, UniProt Q41188 1-90, F48A); assay: as above; conditions: protein: recombinant; tags: N-terminal Trx(6 aa)-His6-TEV tag, cleaved; label: 5'-rhodamine
T7 sequence: T1 sequence with A26F, F48A

[8] = molecular target: T8, AtGRP2-CSD1-79 (Arabidopsis thaliana, UniProt Q41188 1-79); assay: intrinsic Trp fluorescence quenching; 20 mM sodium phosphate pH 6.5, 50 mM NaCl, 25 C (fluorescence); NMR titrations in the same buffer plus 250 uM PMSF, 3 mM NaN3, 5% D2O, 298 K; conditions: protein: recombinant; tags: N-terminal Trx(6 aa)-His6-TEV tag, cleaved
T8 sequence: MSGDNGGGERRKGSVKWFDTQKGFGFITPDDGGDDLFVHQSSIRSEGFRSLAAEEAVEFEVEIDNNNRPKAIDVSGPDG

[9] = molecular target: T5, AtGRP2-CSD1-90 WT; assay: NMR HSQC titration; up to 2x molar excess; 20 mM sodium phosphate pH 6.5, 50 mM NaCl, 25 C (fluorescence); NMR titrations in the same buffer plus 250 uM PMSF, 3 mM NaN3, 5% D2O, 298 K; conditions: protein: recombinant; tags: N-terminal Trx(6 aa)-His6-TEV tag, cleaved

TTTTTTT (ssDNA) [Rho-T7]: no binding [1]; no binding [2]; no binding [3]. For the same binder, the Kd [4] was 210 ± 36.8 µM, the Kd [5] was 17.2 ± 2.4 µM and the Kd [6] was 45.7 ± 6.8 µM. For the same binder, the Kd [7] was 38.6 ± 6.3 µM.

With TTTTTTT (ssDNA) [T7] the Kd [8] was 22 ± 2.4 µM.

GGGGGGG (ssDNA) [G7]: no binding [9].

AAAAAAA (ssDNA) [A7]: no binding [9].

UUUUUUU (ssRNA) [Rho-U7] gave a Kd [5] of 76.8 ± 9.7 µM.
